Data taken from US20230279141A1 (MINERVA BIOTECHNOLOGIES, published 2023).
Values belong to the binder of their own block, whether it stands above or below them. No end group written: not given here.

Legend:
[1] = biological target: T1, recombinant human NME7-AB (human, UniProt Q9Y5B8 92-376); test: sandwich ELISA, PSMGFR-Cys-BSA on the plate, second tagged PSMGFR in solution (FIG. 1)
T1 construct: Monomer with A and B domains; also called NME-AB
T1 sequence: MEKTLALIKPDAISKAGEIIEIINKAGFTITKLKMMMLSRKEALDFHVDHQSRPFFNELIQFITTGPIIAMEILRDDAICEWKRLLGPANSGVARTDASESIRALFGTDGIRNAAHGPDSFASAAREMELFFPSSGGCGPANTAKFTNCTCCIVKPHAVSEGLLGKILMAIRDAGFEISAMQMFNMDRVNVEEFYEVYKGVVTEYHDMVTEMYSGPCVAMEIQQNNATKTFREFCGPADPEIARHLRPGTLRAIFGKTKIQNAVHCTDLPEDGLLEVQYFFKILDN
Description: The PSMGFR peptide bearing a C-terminal Cysteine (PSMGFR-Cys) was covalently coupled to BSA using Imject Maleimide activated BSA kit (Thermo Fisher). PSMGFR-Cys coupled BSA was diluted to 10 ug/mL in 0.1M carbonate/bicarbonate buffer pH 9.6 and 50 uL was added to each well of a 96 well plate. After overnight incubation at 4° C., the plate was washed twice with PBS-T and a 3% BSA solution was added to block remaining binding site on the well. After 1 h at RT the plate was washed twice with PBS-T and NME7, diluted in PBS-T+1% BSA, was added at different concentrations. After 1 h at RT the plate was washed 3× with PBS-T and anti-NM23-H7 (B-9, Santa Cruz Biotechnology), diluted in PBS-T+1% BSA, was added at 1/500 dilution. […] After 1 h at RT the plate was washed 3× with PBS-T and binding of NME7 was measured at 415 nm using ABTS solution (Pierce). […]
After 1 h at RT the plate was washed 3× with PBS-T and His-Tagged PSMGFR peptide (PSMGFR-His) or biotinylated PSMGFR peptide (PSMGFR-biotin), diluted in PBS-T+1% BSA, was added at different concentration. […] After 1 h at RT the plate was washed 3× with PBS-T and binding of PSMGFR peptide to NME7 already bound to another PSMGFR peptide (which could not signal by anti-His antibody or by streptavidin) coupled BSA was measured at 415 nm using a ABTS solution (Pierce).

[2] = biological target: T1, recombinant human NME7-AB; test: ELISA, plate coated with recombinant NME7-AB (FIG. 24)

- binding result [1]: binds
B1: PSMGFR peptide (MUC1* extra cellular domain peptide) (peptide)
peptide: GTINVHDVETQFNQYKTEAASRYNLTISDVSVSDVPFPFSAQSGA
modifications: also: also used with C-terminal Cys coupled to BSA, or His-tagged or biotinylated
notes: also called MUC1* peptide; FLR

- binding result [2]: binds
B2: anti-NME7AB monoclonal antibody 8F9A5A1 (antibody, V domains shown)
VH: IQLVQSGPELKKPGETVKISCKASGYTFTNYGMNWVKQAPGKGLKWMGWINTYTGEPTYVDDFKGRFAFSLETSATTAYLQINNLKNEDTSTYFCARLRGIRPGPLAYWGQGTLVTVSA
VL: EILLTQSPAIIAASPGEKVTITCSASSSVSYMNWYQQKPGSSPKIWIYGISNLASGVPARFSGSGSGTSFSFTINSMEAEDVATYYCQQRSSYPPTFGGGTKLEIKR
notes: Mouse monoclonal

- binding result [2]: binds
B3: anti-NME7AB monoclonal antibody 5F3A5D4 (antibody, V domains shown)
VH: VQLQQSGPDLVKPGTSVKISCKTSGNTFTEYTMHWVKQSHGKSLEWIGGFNPNNGVTNYNQKFKGKATLTVDKSSSTAYMELRSLTSEDSAVYYCARRYYHSTYVFYFDSWGQGTTLTVSS
VL: DIQMTQTTSSLSASLGDRVTISCSASQGISNYLNWFQQKPDGTIKLLIYYTSSLHSGVPSRFSGSGSGTDYSLTISNVEPEDIATYYCQQYSKLPYTFGGGTKLEIKR
notes: Mouse monoclonal
